This is an account of results in US20260209386A1 (MYTHIC THERAPEUTICS, published 2026).

Assay [1] addresses T1, Human PTK7 Protein, His Tag, Acro Biosystems (human, UniProt Q13308 31-704).
T1 construct: Bought recombinant protein; also called CCK4; not shown: His tag
T1 sequence: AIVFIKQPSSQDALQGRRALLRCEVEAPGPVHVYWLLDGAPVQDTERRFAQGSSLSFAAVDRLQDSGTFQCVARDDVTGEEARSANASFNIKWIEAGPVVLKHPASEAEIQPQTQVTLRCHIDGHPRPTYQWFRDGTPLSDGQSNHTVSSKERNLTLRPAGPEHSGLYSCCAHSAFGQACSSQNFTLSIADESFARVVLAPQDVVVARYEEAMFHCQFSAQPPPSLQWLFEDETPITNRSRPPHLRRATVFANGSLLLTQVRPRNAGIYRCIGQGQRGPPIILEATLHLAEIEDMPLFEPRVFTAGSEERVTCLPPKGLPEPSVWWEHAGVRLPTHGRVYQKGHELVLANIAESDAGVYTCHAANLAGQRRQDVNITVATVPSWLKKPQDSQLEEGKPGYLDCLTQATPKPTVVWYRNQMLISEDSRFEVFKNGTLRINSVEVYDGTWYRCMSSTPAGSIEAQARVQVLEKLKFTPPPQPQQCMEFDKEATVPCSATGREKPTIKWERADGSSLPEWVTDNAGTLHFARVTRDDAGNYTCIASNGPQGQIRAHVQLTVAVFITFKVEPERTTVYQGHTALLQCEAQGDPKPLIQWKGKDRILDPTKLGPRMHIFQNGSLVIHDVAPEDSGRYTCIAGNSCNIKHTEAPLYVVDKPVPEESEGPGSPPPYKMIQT
Put plainly: BLI (Octet), antibody on anti-human Fc sensor, 50 nM PTK7 at pH 7.4, dissociation at pH 7.4 or 5.4; 2 = substantially similar binding relative to parent. On the technique in general: In BLI a coated tip is dipped into the sample, and binding shifts an interference pattern.

The target of assay [2] is T2, Human PTK7 Protein, His Tag (Acro Biosystems) (human, UniProt Q13308 31-704).
T2 construct: Bought His-tagged recombinant human PTK7; also called CCK4; Tyrosine-protein kinase-like 7
T2 sequence: T1 sequence
Put plainly: BLI (Octet), antibody on anti-human Fc sensor, 50 nM PTK7; 1 = pH dependent binding.

Residue numbers refer to the chain shown, from its start.

B1: MYT10894 (antibody, V domains shown)
VH: EVQLVESGGGLVQPGGSLRLSCTASGFSLSNYVMHWVRQAPGKGLEWVGIIDSSGSTYYASWAKGRFTISRDTSKNTVYLQMNSLRAEDTAVYFCARGLYLWGQGTLVTVSS
VL: EIVMTQSPSTLSASVGDRVIITCQSSQSVYNNNLLAWYQQKPGKAPKLLIYYTSNLASGVPSRFSGSGSGAEFTLTISSLQPDDFATYYCQGGYNGNIYAFGQGTKLTVL
notes: MYT9345 variant, His at VH pos 35 (H1 10)
Take B1: the binding result in assay [1] was “binds”.

B2: MYT10940 (antibody, V domains shown)
VH: B1 VH with H35N
VL: B1 VL with G92H
notes: MYT9345 variant, His at VL pos 92 (L3 02)
For the molecule B2, the binding result in assay [1] was “binds”.

B3: MYT10908 (antibody, V domains shown)
VH: B1 VH with H35N, A63H
VL: B1 VL
notes: MYT9345 variant, His at VH pos 63 (H2 14)
For B3, in assay [1], the binding result is “binds”.

B4: MYT10929 (antibody, V domains shown)
VH: B1 VH with H35N
VL: B1 VL with L34H
notes: MYT9345 variant, His at VL pos 34 (L1 11)
B4: the binding result in assay [1] is on record as “binds”.

B5: MYT10938 (antibody, V domains shown)
VH: B1 VH with H35N
VL: B1 VL with S58H
notes: MYT9345 variant, His at VL pos 58 (L2 07)
On to B5, for which the binding result in assay [1] is “binds”.

B6: MYT10948 (antibody, V domains shown)
VH: B1 VH with H35N
VL: B1 VL with A100H
notes: MYT9345 variant, His at VL pos 100 (L3 10)
As for B6, the binding result in assay [1] is reported as “binds”.

B7: MYT10932 (antibody, V domains shown)
VH: B1 VH with H35N
VL: B1 VL with Y52H
notes: MYT9345 variant, His at VL pos 52 (L2 01)
For the molecule B7, in assay [1], the binding result was “binds”.

B8: MYT10919 (antibody, V domains shown)
VH: B1 VH with H35N
VL: B1 VL with Q24H
notes: MYT9345 variant, His at VL pos 24 (L1 01)
Turning to B8, in assay [1], the binding result is “binds”.

B9: MYT10907 (antibody, V domains shown)
VH: B1 VH with H35N, W62H
VL: B1 VL
notes: MYT9345 variant, His at VH pos 62 (H2 13)
Regarding B9, the binding result in assay [1] is on record as “binds”.

B10: MYT10906 (antibody, V domains shown)
VH: B1 VH with H35N, S61H
VL: B1 VL
notes: MYT9345 variant, His at VH pos 61 (H2 12)
Consider B10, for which the binding result in assay [1] was “binds”.

B11: MYT10933 (antibody, V domains shown)
VH: B1 VH with H35N
VL: B1 VL with T53H
notes: MYT9345 variant, His at VL pos 53 (L2 02)
Take B11: in assay [1], the binding result is listed as “binds”.

B12: MYT10924 (antibody, V domains shown)
VH: B1 VH with H35N
VL: B1 VL with V29H
notes: MYT9345 variant, His at VL pos 29 (L1 06)
For the molecule B12, the binding result in assay [1] is reported as “binds”.

B13: MYT10915 (antibody, V domains shown)
VH: B1 VH with H35N, Y100H
VL: B1 VL
notes: MYT9345 variant, His at VH pos 100 (H3 05)
For B13, the binding result in assay [1] is recorded as “binds”.

B14: MYT10909 (antibody, V domains shown)
VH: B1 VH with H35N, K64H
VL: B1 VL
notes: MYT9345 variant, His at VH pos 64 (H2 15)
For B14, in assay [1], the binding result was “binds”.

B15: MYT10947 (antibody, V domains shown)
VH: B1 VH with H35N
VL: B1 VL with Y99H
notes: MYT9345 variant, His at VL pos 99 (L3 09)
As to B15, in assay [1], the binding result is “binds”.

B16: MYT10945 (antibody, V domains shown)
VH: B1 VH with H35N
VL: B1 VL with N97H
notes: MYT9345 variant, His at VL pos 97 (L3 07)
Consider B16, for which the binding result in assay [1] was “binds”.

B17: MYT10912 (antibody, V domains shown)
VH: B1 VH with H35N, R97H
VL: B1 VL
notes: MYT9345 variant, His at VH pos 97 (H3 02)
For B17, the binding result in assay [1] is reported as “binds”.

B18: MYT10934 (antibody, V domains shown)
VH: B1 VH with H35N
VL: B1 VL with S54H
notes: MYT9345 variant, His at VL pos 54 (L2 03)
Regarding B18, in assay [1], the binding result is “binds”.

B19: MYT10902 (antibody, V domains shown)
VH: B1 VH with H35N, T57H
VL: B1 VL
notes: MYT9345 variant, His at VH pos 57 (H2 08)
For B19, the binding result in assay [1] is “binds”.

B20: MYT10923 (antibody, V domains shown)
VH: B1 VH with H35N
VL: B1 VL with S28H
notes: MYT9345 variant, His at VL pos 28 (L1 05)
Take B20: in assay [1], the binding result is listed as “binds”.

B21: MYT10941 (antibody, V domains shown)
VH: B1 VH with H35N
VL: B1 VL with G93H
notes: MYT9345 variant, His at VL pos 93 (L3 03)
As to B21, the binding result in assay [1] is on record as “binds”.

B22: MYT10922 (antibody, V domains shown)
VH: B1 VH with H35N
VL: B1 VL with Q27H
notes: MYT9345 variant, His at VL pos 27 (L1 04)
Consider B22, for which the binding result in assay [1] was “binds”.

B23: MYT10910 (antibody, V domains shown)
VH: B1 VH with H35N, G65H
VL: B1 VL
notes: MYT9345 variant, His at VH pos 65 (H2 16)
Consider B23, for which, in assay [1], the binding result is on record as “binds”.

B24: MYT10901 (antibody, V domains shown)
VH: B1 VH with H35N, S56H
VL: B1 VL
notes: MYT9345 variant, His at VH pos 56 (H2 07)
As to B24, in assay [1], the binding result is “binds”.

B25: MYT10900 (antibody, V domains shown)
VH: B1 VH with H35N, G55H
VL: B1 VL
notes: MYT9345 variant, His at VH pos 55 (H2 06)
Regarding B25, the binding result in assay [1] is on record as “binds”.

B26: MYT10914 (antibody, V domains shown)
VH: B1 VH with H35N, L99H
VL: B1 VL
notes: MYT9345 variant, His at VH pos 99 (H3 04)
On to B26, for which the binding result in assay [1] was “binds”.

B27: MYT10921 (antibody, V domains shown)
VH: B1 VH with H35N
VL: B1 VL with S26H
notes: MYT9345 variant, His at VL pos 26 (L1 03)
For the molecule B27, in assay [1], the binding result is “binds”.

B28: MYT10904 (antibody, V domains shown)
VH: B1 VH with H35N, Y59H
VL: B1 VL
notes: MYT9345 variant, His at VH pos 59 (H2 10)
As for B28, the binding result in assay [1] is recorded as “binds”.

B29: MYT10931 (antibody, V domains shown)
VH: B1 VH with H35N
VL: B1 VL with A36H
notes: MYT9345 variant, His at VL pos 36 (L1 13)
In the case of B29, in assay [1], the binding result is listed as “binds”.

B30: MYT10951 (antibody, V domains shown)
VH: EVQLVESGGGLVQPGGSLRLSCTASHFSLSSYAMGWVRQAPGKGLEWVGFINAGGNTYYANWAKGRFTISRDTSKNTVYLQMNSLRAEDTAVYFCARRYSRASGWYDLWGQGTLVTVSS
VL: EIVMTQSPSTLSASVGDRVIITCQASQSISSYLAWYQQKPGKAPKLLIYAASTLASGVPSRFSGSGSGAEFTLTISSLQPDDFATYYCQSYSYSSGIDYGDVFGQGTKLTVL
notes: MYT9359 HC variant; captured on anti-human Fc sensor
Consider B30, for which the binding result in assay [2] was “binds”.

B31: MYT10966 (antibody, V domains shown)
VH: B30 VH with H26G, G55H
VL: B30 VL
notes: as for B30
As for B31, the binding result in assay [2] is “binds”.

B32: MYT10962 (antibody, V domains shown)
VH: B30 VH with H26G, I51H
VL: B30 VL
notes: as for B30
As for B32, the binding result in assay [2] is listed as “binds”.

B33: MYT10959 (antibody, V domains shown)
VH: B30 VH with H26G, M34H
VL: B30 VL
notes: as for B30
As for B33, the binding result in assay [2] is recorded as “binds”.

B34: MYT10970 (antibody, V domains shown)
VH: B30 VH with H26G, Y59H
VL: B30 VL
notes: as for B30
Turning to B34, the binding result in assay [2] was “binds”.

B35: MYT10969 (antibody, V domains shown)
VH: B30 VH with H26G, Y58H
VL: B30 VL
notes: as for B30
As to B35, the binding result in assay [2] is listed as “binds”.

B36: MYT10963 (antibody, V domains shown)
VH: B30 VH with H26G, N52H
VL: B30 VL
notes: as for B30
B36: the binding result in assay [2] is reported as “binds”.

B37: MYT10957 (antibody, V domains shown)
VH: B30 VH with H26G, Y32H
VL: B30 VL
notes: as for B30
As to B37, the binding result in assay [2] is on record as “binds”.
